Data taken from publication PMC3276575, “Structural and Functional Insights into the Pilotin-Secretin Complex of the Type II Secretion System” (PLoS Pathogens, 2012).
Substitutions are numbered along the chain they refer to. Ends that are not written are not given here.

How the values were obtained:
[1] = system: pilotin (OutS); test: 3JHNHA NMR spectra of secretin peptide with pilotin; format: binding, Dickeya dadantii; conditions: presence of pilotin, 15°C
Experimental: (§1) Samples of 0.05 to 0.5 mM labelled proteins in 90% H2O, 10% ^2H2O containing 20 mM Tris (pH 7.0) and 150 mM NaCl. All NMR spectra were acquired at 15°C using Bruker Avance 700- and 600-MHz spectrometers. Assignment of ^1H, ^15N, and ^13C resonances of the backbone was achieved by analysis of HNCACB, CBCA (CO)NH triple resonance experiments.
Supplementary file ppat.1002531.s005.doc: Figure S5 3JHNHA spectra of ^15N-labelled secretin peptide (OutD^680–710) in the absence (red) and presence (black) of pilotin (OutS). The spectra were acquired using a Bruker 700 MHz spectrophotometer at measured at 15°C. […] The 3JHNHA coupling constant was calculated according to measurement of the diagonal-peak to cross-peak intensity ratio in a 3D ^15N separated quantitative J-correlation spectra. […] (DOC) Click here for additional data file.

[2] = target: T1, non-lipidated pilotin OutS (residues 26 to 132) of Dickeya dadantii (Dickeya dadantii, UniProt Q01567 26-132, disulfide bridge Cys 61-Cys 115); test: other fluorescence titration; quenching of the single tryptophan of pilotin (1 µM) on titration with 50 µM secretin peptide in 1 µM pilotin; excitation 290 nm, signal at 340 nm, 15°C; conditions: both partners purified
T1 chain: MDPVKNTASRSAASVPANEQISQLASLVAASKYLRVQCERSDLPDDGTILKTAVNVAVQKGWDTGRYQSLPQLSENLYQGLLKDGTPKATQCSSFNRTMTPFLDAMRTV

[3] = system: non-lipidated OutS; test: GST pull-down assay; format: binding, Dickeya dadantii
Experimental: (§2) Figure S6. Reducing environment prevents interaction of OutS with the C-terminal peptide of OutD. […] Soluble cell extracts of E. coli BL21(DE3) producing either GST alone (lane 1) or GST-OutD649-710 (lanes 2 and 3) were combined with a periplasmic extract containing non-lipidated OutS, then loaded on Glutathione Agarose for 1 h and washed. The incubations were performed in either TBS (lanes 1 and 2) or TBS with 5 mM DTT (lane 3). Bound proteins were eluted with Laemmli sample buffer, separated by Tricine-SDS-PAGE and either stained (upper panel) or probed with OutS antibodies (lower panel). Asterisk indicates a degradation product of GST-OutD649-710. […] The region coding for mature OutS (residues […]) was fused to the C-terminus of T18 subunit of Cya (pUT18-OutS) and the region coding for GST-OutD649-710 was fused to the C-terminus of T25 subunit of Cya (pKT25-GST-Dct). When pUT18-OutS and pKT25-GST-Dct were coexpressed in E. coli DHP1 cya strain, the coresponding fusion proteins were well produced as shown by immunoblotting with anti-OutS and anti-GST antibodies, respectively. […] is indicated by a dot and T25-GST-Dct by a triangle.

[4] = system: OutS; test: Bacterial two-hybrid assay; format: cell-based, Dickeya dadantii
Experimental: as §2

[5] = system: secretin; test: Effect of pilotin binding-surface mutations on secretin binding; set-up: species or system Dickeya dadantii; conditions: in words
Text: The pET-20b(+) plasmid expressing non-lipidated OutS (residues 26 to 132) fused to N-terminal PelB signal peptide has been constructed previously at a manner as the sequence of mature non-lipidated OutS after cleavage by the signal peptidase LepB is: MDP^26VKNT etc. To fuse a C-terminal 6His tag to non-lipidated OutS, SalI site was introduced at the end of outS sequence by using the primer (5′-ctt gac gcc atg cgc acc gtc gac tga ggg gga agc aac tgc) and the reverse complementary one (mutated bases are underlined). Then, by SalI/XhoI digestion the sequence coding for non-lipidated OutS was fused with that coding for 6His. Mutants of OutS were made using Strategene QuikChange and confirmed by sequencing.
Fluorescence data were collected using a Jasco FP-6300 Spectrofluorometer. To avoid exciting tyrosyl side chains, an excitation wavelength of 290 nm was used. Emission spectra were recorded at 15°C in steps of 2 nm from 310 to 400 nm. The fluorescence signal at 340 nm was plotted to calculate K d. Pilotin spectra was measured at 1 µM. 50 µM of secretin peptide prepared in 1 µM pilotin was titrated into pilotin solution (for more information see also Table S1 and reference).

[6] = target: T1, non-lipidated pilotin OutS (residues 26 …); test: NMR titration; 1H-15N HSQC of 15N-labelled pilotin (100 µM), unlabelled secretin peptides titrated in; 15°C, 20 mM Tris pH 7.0, 150 mM NaCl; conditions: both partners purified
[7] = NMR 1H-15N HSQC of free secretin peptide (disorder); format: physicochemical; conditions: 20 mM Tris pH 7.0, 150 mM NaCl, 15°C, 700 MHz
Experimental: as §1
(§3) Supplementary file ppat.1002531.s004.doc: Figure S4 The C-terminus of the 62 residue secretin peptide ([…]) is unstructured. ^1H-^15N HSQC spectra of recombinantly produced ^15N-labelled secretin peptide (70 µM peptide in 20 mM Tris pH 7.0 with 150 mM NaCl at 15°C) acquired using a Bruker 700 MHz spectrophotometer. […] The spectra are cleaner than those shown previously (Figure S2 and S3) because the spectra were acquired quickly. […] (DOC) Click here for additional data file.

[8] = Cleavage of secretin peptide during lengthy NMR experiments; format: physicochemical; conditions: during more lengthy NMR experiments; 20 mM Tris pH 7.0, 150 mM NaCl, 15°C
Experimental: as §3

[9] = system: pilotin; conditions: ref [11]; cited from earlier work
Text: This secretin peptide was produced with ^15N-label as a fusion to GST and then released with PreScision protease.

Question: Which “residues of secretin peptide that become helical on binding” value [1] does the source give for “OutD^680–710: 15N-labelled secretin peptide (OutD680–710) (DNNTLRLSGGNTYTFRQVQSSISDFYKPEGR; also: 15N-labelled; UniProt Q01565 680-710, looked up, fragment)” here?
Answer: The value was “at least four”.

B1: 18 residue synthetic secretin peptide (OutD residues 691 to 708 inclusive) (peptide)
peptide: TYTFRQVQSSISDFYKPE
notes: secretin OutD, Dickeya dadantii, residues 691 to 708 inclusive; also called 18 residue secretin peptide; OutD^691–708; source: synthetic peptide, bought: Generon
Question: For B1, which Kd [2] is on record?
Answer: The Kd was 55 ± 20 nM.

Question: What about the “stoichiometry N” value [2] of the same molecule?
Answer: The value was 1.

B2: OutS: Dickeya dadantii type II secretion system pilotin, non-lipidated (residues 26 to 132), UniProt Q01567 (protein)
chain: CQTPAPVKNTASRSAASVPANEQISQLASLVAASKYLRVQCERSDLPDDGTILKTAVNVAVQKGWDTGRYQSLPQLSENLYQGLLKDGTPKATQCSSFNRTMTPFLDAMRTVR
Question: Which “binding to cognate secretin with reducing agent, pull-down” value ([3]; reducing agent, non-lipidated OutS with GST-OutD649–710) does the source give for B2 here?
Answer: The value was “unable to bind the cognate secretin”.

Question: And the “binding to cognate secretin with reducing agent, two-hybrid” value ([4]; bacterial two-hybrid)?
Answer: The value was “unable to bind the cognate secretin”.

B3: OutS_Q114A (protein, UniProt Q01567 21-133, looked up, variant Q114A)
Pilotin OutS: B2 chain with Q94A
Question: Which “effect of mutation on binding” value [5] does the source give for B3 here?
Answer: The value was “substantial effect on binding”.

B4: OutS_S49R (protein, UniProt Q01567 21-133, looked up, variant S49R)
Pilotin OutS: B2 chain with S29R
Question: With B4 as the molecule, how does the “effect of mutation on binding” value [5] read?
Answer: Its value is “profound effect on binding”.

B5: OutS_L100A (protein, UniProt Q01567 21-133, looked up, variant L100A)
Pilotin OutS: B2 chain with L80A
Question: With B5 as the molecule, how does the “effect of mutation on binding” value [5] read?
Answer: The value was “substantial effect on binding”.

B6: OutS_L96A (protein, UniProt Q01567 21-133, looked up, variant L96A)
Pilotin OutS: B2 chain with L76A
Question: For B6, which “effect of mutation on binding” value [5] is on record?
Answer: Its value is “substantial effect on binding”.

B7: 62 residue C-terminal secretin peptide (OutD residues 649-710) (peptide)
chain: DPGQFQEASINKYRSFNNEQQQQRGEGNGVLDNNTLRLSGGNTYTFRQVQSSISDFYKPEGR
notes: secretin OutD, Dickeya dadantii, C-terminal 62 residues (649-710); 15N-labelled in one titration, unlabelled in the other; The peptide is slowly cleaved; also called 62 residue secretin peptide; OutD^648–710; source: E. coli BL21(DE3), purified as GST fusion, released with PreScision protease; not shown: GST, N-terminal, cleaved
Question: With B7 as the molecule, how does the “stoichiometry N” value [6] read?
Answer: The value was 1.

B8: 62 residue secretin peptide: C-terminal 62 residues of the secretin, produced as a fusion to GST and released with PreScision protease (protein)
chain: B7 chain
modifications: left off: GST, N-terminal, cleaved
notes: C-terminal 62 residues of the secretin, produced as a fusion to GST and released with PreScision protease
Question: Which results are given for B8?
Answer: structure in solution (dispersion of backbone amides) [7]: intrinsically unstructured; structure in solution (dispersion of backbone amides) ([7]; listed as C-terminal 62 residues): unstructured in solution; cleavage of peptide [8]: slowly cleaved; binding to pilotin [9]: bound to the pilotin

B9: GST-OutD649-710: C-terminal segment of OutD fused to GST; in two-hybrid fused to C-terminus of T25 subunit of Cya (protein)
chain: B7 chain
modifications: not fully specified (N-terminus); also: fused to GST
notes: C-terminal segment of OutD fused to GST; in two-hybrid fused to C-terminus of T25 subunit of Cya
Question: What does the source list for B9?
Answer: binding in GST pull-down ([3]; reducing conditions, TBS with 5 mM DTT, 1 h on Glutathione Agarose): does not bind; colony colour in bacterial two-hybrid assay ([4]; MacConkey-maltose agar, known interacting couple used as positive control): white colonies; interaction in bacterial two-hybrid assay ([4]; reducing conditions of the bacterial cytoplasm, T25/T18 fusions, E. coli DHP1 cya, MacConkey-maltose agar): does not interact
